Where two headings read alike, the source gives them in different places.
Assays:
[1] = molecular target: wheat gliadin (Sigma, Cat. No. G3375) (wheat); assay: cell-based or functional assay
[2] = system: 26-mer peptide
[3] = system: 33-mer peptide
[4] = molecular target: T1, 26-mer peptide
T1 chain: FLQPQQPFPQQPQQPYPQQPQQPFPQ

[5] = molecular target: T2, 33-mer peptide
T2 chain: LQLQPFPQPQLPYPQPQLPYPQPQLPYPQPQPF

Brewers Clarex (enzyme) showed a Residual Immunogenicity (%) of wheat gliadin, competitive ELISA after protease treatment [1] of 59.7%.

In the case of Brewers Clarex, the Residual 26-mer peptide (mg/mL) after 0.5 ppm protease, 10 min 40 C, HPLC [2] is reported as 0.65 mg/mL, the Residual 26-mer peptide (mg/mL) after 1 ppm protease, 10 min 40 C, HPLC [2] is reported as 0.46 mg/mL and the Residual 26-mer peptide (mg/mL) after 2 ppm protease, 10 min 40 C, HPLC [2] is reported as 0.2 mg/mL. For the same molecule, the Residual immunogenicity of 26-mer peptide (%), competitive ELISA after protease treatment [2] was 99.6%, the Residual 33-mer peptide (mg/mL) after 0.5 ppm protease, 10 min 40 C, HPLC [3] was 0.58 mg/mL and the Residual 33-mer peptide (mg/mL) after 1 ppm protease, 10 min 40 C, HPLC [3] was 0.39 mg/mL. For the same molecule, the Residual 33-mer peptide (mg/mL) after 2 ppm protease, 10 min 40 C, HPLC [3] was 0.18 mg/mL and the Residual immunogenicity of 33-mer peptide (%), competitive ELISA after protease treatment [3] was 73.7%.

B1: AflPro3 (protein)
chain: LSFLPGIKANNLQLASVLGIDGHTARFNPEKIAETAISRGSGSEVPARRISIPIDHEDPSMGTYQNRYWVSADFYKPGGPVFVLDAGEGNAYSVAQSYLGGSDNFFAEYLKEFNGLGLVWEHRYYGDSLPFPVNTSTPNEHFKYLTNSQALADLPYFAEKFTLNGTDLSPKSSPWIMLGGSYPGMRAAFTRNEYPDTIFASFAMSAPVEAWVNMTIYFEQVYRGMVANGLGGCAKDLKAINDYIDSQLDKKGQAADAIKTLFLGKEGIHNSNGDFTAALGSIYNLFQSYGVDGGEESLSQLCSYLDKEASPNGIARKIGVKELTEKFAAWPPLLYLINQWGSQVGNGDSNCKGQNNSTETVCELGGQFTDPDTISWTWQYCTEWGYLQADNVGPHSLLSKYQSLEYQQSLCYRQFPGAKESGLLPEHPEANETNAETGGWTIRPSNVFWSAGEFDPWRTLTPLSNETFAPKGVQISTNIPKCGVETPENVLFGYVIPRAEHCFDYDLSYKPADKSRKLFSLALKKWLPCWRSEHAPKGVQRKWM
Work on B1 yielded a Residual 26-mer peptide (mg/mL) after 0.5 ppm protease, 10 min 40 C, HPLC [4] of 0.38 mg/mL, a Residual 26-mer peptide (mg/mL) after 1 ppm protease, 10 min 40 C, HPLC [4] of 0.17 mg/mL and a Residual 26-mer peptide (mg/mL) after 2 ppm protease, 10 min 40 C, HPLC [4] of 0.05 mg/mL. For the same molecule, the Residual 33-mer peptide (mg/mL) after 0.5 ppm protease, 10 min 40 C, HPLC [5] was 0.09 mg/mL, the Residual 33-mer peptide (mg/mL) after 1 ppm protease, 10 min 40 C, HPLC [5] was 0.01 mg/mL and the Residual 33-mer peptide (mg/mL) after 2 ppm protease, 10 min 40 C, HPLC [5] was 0.01 mg/mL.

Source: patent publication US20210315238A1
